The results in this text go back to US20240301086A1 (APTEVO RESEARCH AND DEVELOPMENT, published 2024).

The target of experiment [1] is T1, human CD3ε in the TCR/CD3 complex on Jurkat cells (human, UniProt P07766 23-207).
T1 construct: whole, on cells; On the cells it stands in the whole TCR/CD3 complex; also called CD3 (+) cells; CD3-expressing Jurkat cells
The experiment in a line: flow cytometry, drawn table 'On- Cell Binding Parameters', row 'Human CD3 binding affinity'. The protocol:
(§1) Constructs were initially tested in CD3ε and PSMA binding assays on Jurkat and C4-2B cells. Cells were labelled at approximately 100,000 cells per well, in 96-well plates, with serial dilutions of bispecific constructs ranging in concentration from of 0.1 to 300 nM, for 30 min on ice. Primary label was followed by washes and incubation with PE-labeled minimum cross species reactive secondary antibody, goat anti-human IgG Fcγ, F(ab′)2 (Jackson Laboratory) for 30 minutes on ice. Washes and incubation were done in staining buffer (PBS with 0.2% BSA and 2 mM EDTA). Cells were collected using an BD™ LSRII or a BD FACSymphony™ flow cytometer (BD Biosciences) and analyzed by FlowJo flow cytometry analysis software. Median fluorescence intensity (MFI) of bound molecules on cells was determined after exclusion of doublets. Results were plotted and nonlinear regression analysis to determine EC50 values was performed using GraphPad Prism 7© graphing and statistics software.
In general terms: A flow cytometer gives signals particle by particle.

In experiment [2] the target is T2, Full-length Human PSMA (TSC435), on cells (human, UniProt Q04609 1-750).
T2 construct: also called CHOK1SV/huPSMA; PSMA on C4-2B, 22RV1, LNCaP, MDA-PCa-2b cells
As to the kind of experiment: flow cytometry, drawn table 'On- Cell Binding Parameters', row 'Human PSMA binding affinity'.

For experiment [3], the target named is T3, cynomolgus Fcγ receptor III (cynomolgus monkey, UniProt Q8SPW2 17-208).
T3 construct: Called recombinant, soluble; also called Cyno RIII
The experiment in a line: SPR (Biacore T200), construct amine-coupled, soluble cyno Fcγ receptor as analyte. The protocol:
(§2) The Fc region incorporated into anti-PSMA bispecific constructs contained mutations intended to reduce or abolish binding to common human and cynomolgus Fc gamma receptors. SPR experiments were conducted at 25° C. in HBS-EP+ with 0.2% BSA buffer on a Biacore T200 system to evaluate the impact of these mutations on binding. For these experiments, three flow cells of a CM5 sensor chip were immobilized with anti-PSMA bispecifics by standard amine coupling to a response level of ˜2000 RU. A blank immobilization was performed on flow cell #1 for purposes of background signal subtraction. Both human and cynomolgus monkey Fcγ receptors (purchased from R&D Systems) were diluted in HBS-EP+ with 0.2% BSA to 4-6 μM and then flowed as analytes at 30 μL/min for 120 seconds followed by a 240 second dissociation step. No regeneration step was required. Blank-subtracted sensorgrams were visually inspected for binding to each of the Fcγ receptor proteins. […] Attenuated binding to Fcγ receptors IIA (both polymorphic variants) and IIB/C was observed. PSMA01107 and PSMA01108 share the same Fc amino acid sequence and therefore equivalent Fcγ receptor binding behavior was expected.

Experiment [4] addresses T1, human CD3ε in the TCR/CD3 complex on …. As to the kind of experiment: flow cytometry on Jurkat cells, PE goat anti-human IgG Fc secondary, MFI (median). The protocol: as §1
In experiment [5] the target is T4, Full-length cynomolgus monkey PSMA (TSC308), on cells (cynomolgus monkey, UniProt Q04609 1-750 (human entry)).
T4 construct: also called cyno PSMA; CHOK1SV/cynoPSMA
T4 chain: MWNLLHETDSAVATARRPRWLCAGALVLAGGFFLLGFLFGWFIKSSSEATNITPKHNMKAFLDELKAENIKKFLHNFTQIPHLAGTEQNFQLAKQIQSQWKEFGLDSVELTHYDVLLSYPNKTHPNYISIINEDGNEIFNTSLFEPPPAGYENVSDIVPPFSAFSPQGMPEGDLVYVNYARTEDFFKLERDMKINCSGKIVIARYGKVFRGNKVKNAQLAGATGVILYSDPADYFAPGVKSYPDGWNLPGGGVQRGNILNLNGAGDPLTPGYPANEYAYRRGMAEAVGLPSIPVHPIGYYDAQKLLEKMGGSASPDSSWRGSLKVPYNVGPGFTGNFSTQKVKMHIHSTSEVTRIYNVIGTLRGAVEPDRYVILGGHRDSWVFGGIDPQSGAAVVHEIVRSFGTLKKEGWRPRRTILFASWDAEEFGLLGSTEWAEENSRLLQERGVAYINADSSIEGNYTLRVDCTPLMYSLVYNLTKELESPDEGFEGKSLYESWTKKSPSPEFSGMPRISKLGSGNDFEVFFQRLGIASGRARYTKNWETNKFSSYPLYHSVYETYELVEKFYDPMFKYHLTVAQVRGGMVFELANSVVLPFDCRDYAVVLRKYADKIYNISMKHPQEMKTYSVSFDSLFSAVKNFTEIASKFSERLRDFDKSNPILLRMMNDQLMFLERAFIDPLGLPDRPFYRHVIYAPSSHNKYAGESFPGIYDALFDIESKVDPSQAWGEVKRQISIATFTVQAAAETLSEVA
The experiment in a line: flow cytometry on CHO-CynoPSMA cells, Median (PE); drawn table row 'Cyno PSMA binding affinity'.

The target of experiment [6] is T1, human CD3ε in the TCR/CD3 complex on …. The experiment in a line: flow cytometry on Jurkat cells, PE goat anti-human IgG Fc secondary, MFI (median). The protocol:
as §1
The source holds these as a separate data set.

Experiment [7] concerns the target T2, Full-length Human PSMA (TSC435), on …. As to the kind of experiment: flow cytometry on C4-2B cells, PE goat anti-human IgG Fc secondary, MFI (median). The protocol: as §1
The target is the same in experiment [8]. The description is as above. On the procedure: as §1
The source holds these as a separate data set.

For experiment [9], the target named is human Fcγ receptor I (human, UniProt P12314 16-288). The experiment in a line: SPR (Biacore T200), construct amine-coupled, Fcγ receptor as analyte. The protocol:
as §2

Experiment [10] has as its target human Fcγ receptor IIIA, F176 variant (human, UniProt P08637 17-208). Described as above. On the procedure:
as §2

Experiment [11] concerns the target human Fcγ receptor IIIB (human, UniProt O75015 17-200). The experiment is described as above. On the procedure: as §2
Experiment [12] concerns the target human Fcγ receptor IIIA, V176 variant (human, UniProt P08637 17-208). The experiment is described as above. On the procedure:
as §2

Bounds are passed on as bounds.

T1 sequence (P07766 23-207, one chain of several): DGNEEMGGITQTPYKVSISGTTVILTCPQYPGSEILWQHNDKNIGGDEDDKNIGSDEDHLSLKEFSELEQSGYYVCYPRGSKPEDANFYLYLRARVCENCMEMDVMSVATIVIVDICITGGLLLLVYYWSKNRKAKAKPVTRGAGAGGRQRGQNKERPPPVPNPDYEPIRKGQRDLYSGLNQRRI
Sequence of human Fcγ receptor IIIA, F176 variant (P08637 17-208, change not shown): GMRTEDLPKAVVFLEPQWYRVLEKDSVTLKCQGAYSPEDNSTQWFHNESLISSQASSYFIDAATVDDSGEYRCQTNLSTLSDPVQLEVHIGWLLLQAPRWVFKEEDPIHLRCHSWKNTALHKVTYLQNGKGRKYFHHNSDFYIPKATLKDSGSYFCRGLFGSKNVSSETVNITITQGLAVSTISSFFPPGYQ
Sequence of human Fcγ receptor IIIB (O75015 17-200): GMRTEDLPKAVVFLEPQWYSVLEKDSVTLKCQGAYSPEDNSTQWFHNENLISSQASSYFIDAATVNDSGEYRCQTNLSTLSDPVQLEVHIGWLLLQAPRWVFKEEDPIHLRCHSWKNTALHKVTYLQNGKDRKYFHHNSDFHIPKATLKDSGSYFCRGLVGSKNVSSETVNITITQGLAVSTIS
Sequence of human Fcγ receptor IIIA, V176 variant (P08637 other isoform, or with tags, fused parts or gaps mutant): as the sequence (P08637 17-208, change not shown) above, with F160V counted along it
Sequence of human Fcγ receptor I (P12314 16-288): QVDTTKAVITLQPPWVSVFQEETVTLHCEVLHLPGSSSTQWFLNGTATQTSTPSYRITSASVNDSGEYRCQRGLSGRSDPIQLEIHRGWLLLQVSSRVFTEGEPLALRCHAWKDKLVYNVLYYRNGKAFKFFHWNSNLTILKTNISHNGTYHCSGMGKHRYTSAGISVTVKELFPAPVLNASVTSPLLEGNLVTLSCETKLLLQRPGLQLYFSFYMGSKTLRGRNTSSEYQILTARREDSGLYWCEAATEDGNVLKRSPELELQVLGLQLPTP
T3 sequence (Q8SPW2 17-208): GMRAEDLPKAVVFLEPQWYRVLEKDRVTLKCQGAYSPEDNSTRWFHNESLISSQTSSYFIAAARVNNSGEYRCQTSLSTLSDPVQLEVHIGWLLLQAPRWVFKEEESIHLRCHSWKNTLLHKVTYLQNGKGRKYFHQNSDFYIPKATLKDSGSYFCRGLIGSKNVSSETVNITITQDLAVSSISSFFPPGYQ

B1: TSC266 Anti PSMA scFv x Anti CD3 scFv ADAPTIR (bispecific antibody)
chain: DIQMTQSPSAMSASVGDRVTITCRASKSISKYLAWFQQKPGKVPKLRIHSGSTLQSGVPSRFSGSGSGTEFTLTISSLQPEDFATYYCQQHIEYPWTFGQGTKVEIKRGGGGSGGGGSGGGGSQVQLVQSGAEVKKPGASVKVSCKASGYTFTDYYMHWVRQAPGQGLEWMGYFNPYNDYTRYAQKFQGRVTMTRDTSISTAYMELSSLRSDDTAVYYCARSDGYYDAMDYWGQGTTVTVSSSEPKSSDKTHTCPPCPAPEAAGAPSVFLFPPKPKDTLMISRTPEVTCVVVDVSHEDPEVKFNWYVDGVEVHNAKTKPREEQYNSTYRVVSVLTVLHQDWLNGKAYACAVSNKALPAPIEKTISKAKGQPREPQVYTLPPSRDELTKNQVSLTCLVKGFYPSDIAVEWESNGQPENNYKTTPPVLDSDGSFFLYSKLTVDKSRWQQGNVFSCSVMHEALHNHYTQKSLSLSPGQRHNNSSLNTGTQMAGHSPNSQVQLVESGGGVVQPGRSLRLSCKASGYTFTRSTMHWVRQAPGQGLEWIGYINPSSAYTNYNQKFKDRFTISADKSKSTAFLQMDSLRPEDTGVYFCARPQVHYDYNGFPYWGQGTPVTVSSGGGGSGGGGSGGGGSAQDIQMTQSPSSLSASVGDRVTMTCSASSSVSYMNWYQQKPGKAPKRWIYDSSKLASGVPARFSGSGSGTDYTLTISSLQPEDFATYYCQQWSRNPPTFGGGTKLQITSSS
notes: The anti-PSMA domain is that of PSMA01012 and the anti-CD3 domain is DRA222; also called unoptimized parent construct; TSC266 control (PSMA × CD3 bispecific protein)
Consider B1, for which the EC50 (as a rule, the concentration that produces a half-maximal response) in experiment [1] came out at 2 nM; in experiment [2], 10 nM; in [4] it was 2 nM; in [5], 20 nM; in [6], 2 nM; in [7], 7 nM. In addition, in [8], the response was half-maximal at 7 nM (EC50). Moreover, the Max in experiment [1] stood at 15000; in experiment [2], 1400; in [5], 6000. In addition, the binding result in [3], in experiment [9], in [10], in experiment [11] and in experiment [12] was “no binding (tested: 4-6 µM)” each time.

B2: PSMA01107 Anti-PSMA scFv x Fc x linker x Anti CD3 scFv; Anti PSMA scFv x Fc (bispecific antibody)
chain 1: QVQLVQSGAEVKKPGASVKVSCKASGYTFTDYYMHWVRQAPGQGLEWMGYFNPYNDYTRYAQKFQGRVTMTRDTSTSTVYMELSSLRSEDTAVYYCARSDGYYDAMDYWGQGTTVTVSSGGGGSGGGGSGGGGSGGGGSDIQMTQSPSSLSASVGDRVTITCRASKSISKYLAWYQQKPGKAPKLLIHSGSSLESGVPSRFSGSGSGTEFTLTISSLQPDDFATYYCQQHIEYPWTFGQGTKVEIKEPKSSDKTHTCPPCPAPPAAAPSVFLFPPKPKDTLMISRTPEVTCVVVDVSHEDPEVKFNWYVDGVEVHNAKTKPREEQYNSTYRVVSVLTVLHQDWLNGKEYKCAVSNKALPAPIEKTISKAKGQPREPQVYTLPPSRDELTKNQVSLWCLVKGFYPSDIAVEWESNGQPENNYKTTPPVLDSDGSFFLYSKLTVDKSRWQQGNVFSCSVMHEALHNHYTQKSLSLSPGGGGSPSQVQLVQSGAEVKKPGASVKVSCKASGYTFTRSTMHWVRQAPGQGLEWIGYINPSSAYTNYAQKFQGRVTLTADKSTSTAYMELSSLRSEDTAVYYCASPQVHYDYNGFPYWGQGTLVTVSSGGGGSGGGGSGGGGSGGGGSDIQMTQSPSSLSASVGDRVTITCRASSSVSYMNWYQQKPGKAPKRWIYDSSKLASGVPSRFSGSGSGTDFTLTISSLQPEDFATYYCQQWSRNPPTFGQGTKVEIKRS
chain 2: QVQLVQSGAEVKKPGASVKVSCKASGYTFTDYYMHWVRQAPGQGLEWMGYFNPYNDYTRYAQKFQGRVTMTRDTSTSTVYMELSSLRSEDTAVYYCARSDGYYDAMDYWGQGTTVTVSSGGGGSGGGGSGGGGSGGGGSDIQMTQSPSSLSASVGDRVTITCRASKSISKYLAWYQQKPGKAPKLLIHSGSSLESGVPSRFSGSGSGTEFTLTISSLQPDDFATYYCQQHIEYPWTFGQGTKVEIKEPKSSDKTHTCPPCPAPPAAAPSVFLFPPKPKDTLMISRTPEVTCVVVDVSHEDPEVKFNWYVDGVEVHNAKTKPREEQYNSTYRVVSVLTVLHQDWLNGKEYKCAVSNKALPAPIEKTISKAKGQPREPQVYTLPPSRDELTKNQVSLSCAVKGFYPSDIAVEWESNGQPENNYKTTPPVLDSDGSFFLVSKLTVDKSRWQQGNVFSCSVMHEALHNHYTQKSLSLSPG
notes: Heterodimer, bivalent for PSMA and monovalent for CD3 (VH-VL scFv at the C-terminus); also called PSMA1107
As for B2, the EC50 was above 200 nM in experiment [1]; 1 nM in experiment [2]; above 208 nM in experiment [4]; 5 nM in experiment [5]; above 200 nM in experiment [6]; 1 nM in experiment [7]. The same molecule registered an EC50 in [8] of 1 nM. For the same molecule, the Max in experiment [1] is 2000; in experiment [2], 2400; in [5], 22000. In addition, the binding result in experiment [3], in experiment [9], in experiment [10], in experiment [11] and in [12] was “no binding (tested: 4-6 µM)” throughout.
